Experimental data from patent publication US20230051701A1 (Bristol-Myers Squibb, published 2023).
Where “and” joins values, the source holds several entries; their conditions need not be identical. Identical values can stand only once.

Tests used:
[1] = target: T1, rhCD73 bound to his-tag magnet beads (human, UniProt P21589 27-549, limits assumed); experiment: cell-based or functional assay
T1 sequence: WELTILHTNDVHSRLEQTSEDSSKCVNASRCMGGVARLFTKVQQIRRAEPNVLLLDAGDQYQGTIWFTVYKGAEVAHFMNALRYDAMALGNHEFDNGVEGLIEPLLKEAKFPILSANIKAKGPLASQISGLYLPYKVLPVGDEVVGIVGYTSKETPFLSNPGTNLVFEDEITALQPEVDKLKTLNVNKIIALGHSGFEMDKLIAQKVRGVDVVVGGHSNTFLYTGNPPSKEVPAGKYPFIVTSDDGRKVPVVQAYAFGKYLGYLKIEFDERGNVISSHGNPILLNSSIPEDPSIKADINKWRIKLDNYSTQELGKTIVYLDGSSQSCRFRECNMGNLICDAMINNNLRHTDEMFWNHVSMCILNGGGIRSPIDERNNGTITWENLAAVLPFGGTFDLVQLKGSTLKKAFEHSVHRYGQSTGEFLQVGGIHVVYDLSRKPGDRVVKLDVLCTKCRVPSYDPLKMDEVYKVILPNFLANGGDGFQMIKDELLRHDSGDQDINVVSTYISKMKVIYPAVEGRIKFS

[2] = target: T2, human CD73 on cells (Calu6, NCI-H292, SK-MEL-24, human tumor cell lines, human B and T cells) (human, UniProt P21589 27-549); experiment: cell-based or functional assay
T2 sequence: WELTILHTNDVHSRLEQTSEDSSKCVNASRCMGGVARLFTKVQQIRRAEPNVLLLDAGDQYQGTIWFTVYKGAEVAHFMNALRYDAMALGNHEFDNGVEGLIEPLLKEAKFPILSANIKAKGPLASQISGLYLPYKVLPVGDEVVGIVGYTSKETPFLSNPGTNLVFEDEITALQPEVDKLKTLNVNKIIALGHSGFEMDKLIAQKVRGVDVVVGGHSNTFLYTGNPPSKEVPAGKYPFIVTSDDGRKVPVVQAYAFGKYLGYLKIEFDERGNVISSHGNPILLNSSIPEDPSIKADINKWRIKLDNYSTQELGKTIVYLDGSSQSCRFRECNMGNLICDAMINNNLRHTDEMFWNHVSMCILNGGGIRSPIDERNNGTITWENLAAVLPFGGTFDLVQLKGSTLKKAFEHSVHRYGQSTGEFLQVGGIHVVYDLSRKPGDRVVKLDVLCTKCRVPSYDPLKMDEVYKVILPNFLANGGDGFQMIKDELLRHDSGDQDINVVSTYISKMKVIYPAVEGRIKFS

[3] = target: T2, human CD73 on cells (Calu6, NCI-H292, …); experiment: cell-based or functional assay; remark: listed apart in the source
[4] = target: T2, human CD73 on cells (Calu6, NCI-H292, …); experiment: cell-based or functional assay; remark: listed apart in the source
[5] = target: T3, N-terminal domain of hCD73 (residues 26-336 of human CD73), His-tagged (human, UniProt P21589 26-336); experiment: SPR, mAb captured on protein A
T3 construct: also called N-hCD73; N-hCD73-his
T3 sequence: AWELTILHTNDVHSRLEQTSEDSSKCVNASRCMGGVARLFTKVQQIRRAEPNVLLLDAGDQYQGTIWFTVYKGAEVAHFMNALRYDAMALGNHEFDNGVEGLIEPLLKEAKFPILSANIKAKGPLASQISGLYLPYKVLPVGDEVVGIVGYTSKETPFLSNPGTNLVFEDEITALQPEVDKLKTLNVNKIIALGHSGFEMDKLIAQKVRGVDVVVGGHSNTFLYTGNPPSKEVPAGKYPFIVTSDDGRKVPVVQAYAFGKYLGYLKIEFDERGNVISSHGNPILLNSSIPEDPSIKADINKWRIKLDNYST
Experimental: For these experiments, protein A (Pierce) was immobilized to a density of 3000 — 4000 RU on flow cells 1-4 of a CM5 sensor chip (GE Healthcare) using standard ethyl(dimethylaminopropyl) carbodiimide (EDC)/N-hydroxysuccinimide (NHS) chemistry, with ethanolamine blocking, in a running buffer of 0.01 M HEPES pH 7.4, 0.15 M NaCl, 3 mM EDTA, 0.005% v/v tween 20. […] The running buffer for the kinetic experiments was 10 mM sodium phosphate, 130 mM sodium chloride, 0.05% tween 20, pH 7.1. The surfaces were regenerated after each cycle using two 30 s pulses of 10 mM glycine pH 1.5 at a flow rate of 30 μl/min. Sensogram data was double-referenced and then fitted to a 1:1 Langmuir model using Biacore T100 evaluation software v2.0.4, to determine the association rate constant (ka), the dissociation rate constant (kd), and the equilibrium dissociation constant (KD).

[6] = target: T4, cynomolgus CD73 on transfected CHO cells (cynomolgus, UniProt P21589 27-549 (human entry)); experiment: flow cytometry, CHO-cynoCD73 cells
T4 construct: also called CHO-cynoCD73; cyno CD73 positive CHO cells
T4 chain: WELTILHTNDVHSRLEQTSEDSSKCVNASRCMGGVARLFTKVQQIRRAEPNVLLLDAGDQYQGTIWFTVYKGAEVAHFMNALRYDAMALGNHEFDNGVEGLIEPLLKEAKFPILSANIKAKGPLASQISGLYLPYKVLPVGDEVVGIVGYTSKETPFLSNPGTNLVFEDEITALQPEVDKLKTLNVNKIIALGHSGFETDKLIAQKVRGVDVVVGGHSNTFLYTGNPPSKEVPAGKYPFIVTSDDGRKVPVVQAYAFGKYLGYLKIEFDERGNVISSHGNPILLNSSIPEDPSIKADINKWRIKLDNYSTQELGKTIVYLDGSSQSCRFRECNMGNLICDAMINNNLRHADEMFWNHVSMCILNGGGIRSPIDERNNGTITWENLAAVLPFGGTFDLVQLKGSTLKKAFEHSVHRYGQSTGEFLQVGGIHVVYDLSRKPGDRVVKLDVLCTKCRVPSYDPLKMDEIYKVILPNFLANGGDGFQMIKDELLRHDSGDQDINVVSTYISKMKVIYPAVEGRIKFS
Experimental: Titration binding curves were produced with CD73 antibodies on Calu6 (CD73 endogenous expressors; human pulmonary adenocarcinoma cell line), DMS114 (CD73 negative; human small cell lung cancer cell line), CHO-cynoCD73 (cynoCD73-transfected) and CHO-K1 (cynoCD73 negative), cells using Alexa Fluor® 647 Goat Anti-Human IgG (H+L) as a secondary antibody, Invitrogen Cat#A-21445, using the following method: 100000 cells were plated in 100 uL PBS+2% FBS per well and blocked for 20 min. Using a U-bottom 96-deep well plate, volumes of antibody and PBS+2% FBS were combined as dictated by Table 12 below.
An 8-point serial dilution was performed by diluting a sixth of the volume (90 uL) into 450 μL PBS+2% FBS. The cell plate was spun down for 5 minutes at 1500 rpm. 100 uL of diluted antibody was added per well of the plate. 100 uL PBS+2% FBS were added to all other wells. […] The plates were spun down at 1500 rpm for 5 min and washed in 200 uL PBS +2% FBS per well. The plates were washed again, resuspended in 200 uL 2% FBS in PBS per well and the samples were run.

[7] = target: T4, cynomolgus CD73 on transfected CHO cells; experiment: flow cytometry, CHO-cynoCD73 cells, anti-human IgG secondary; column 'Kd (ng/mL)'
[8] = target: T2, human CD73 on cells (Calu6, NCI-H292, …); experiment: flow cytometry, Calu6 cells, anti-human IgG secondary (unstained -8.27, sec only 30.3)
[9] = target: T4, cynomolgus CD73 on transfected CHO cells; experiment: flow cytometry, CHO-cynoCD73 cells, anti-human IgG secondary (unstained 4.81, sec only 18.5)

B1: 11F11 (antibody, human IgG2, kappa, V domains shown)
VH: QVQLVESGGGVVQPGRSLRLSCATSGFTFSNYGMHWVRQAPGKGLEWVAVILYDGSNKYYPDSVKGRFTISRDNSKNTLYLQMNSLRAEDTAVYYCARGGSSWYPDSFDIWGQGTMVTVSS
VL: DIQMTQSPSSLSASVGDRVTITCRASQGISSWLAWYQQKPEKAPKSLIYAASSLQSGVPSRFSGSGSGTDFTLTISSLQPEDFATYYCQQYNSYPLTFGGGTKVEIKR
notes: Human IgG2 from hybridoma
EC50 (nM), inhibition of bead-bound rhCD73 enzymatic activity [1]: 3.98 nM | EC50 Calu6 inhibition [2]: 0.7 nM | EC50 SKMEL24 inhibition [2]: 3.15 nM | Ymax, cAMP HTRF assay [3]: 76 % of 100 nM 11F11 | EC50 (nM), CD73 internalization, Calu6, 2 h [4]: 0.58 nM | Ymax, CD73 internalization, Calu6, 2 h [4]: 98 % of 100 nM 11F11 | Kd [5]: 1.6 nM and 0.56 nM | EC50 [6]: 0.58 nM | Kd [7]: 0.0207 µg/mL | MFI at 0.07 ng/mL antibody [8]: 788 | MFI at 0.43 ng/mL antibody [8]: 1290 | MFI at 2.57 ng/mL antibody [8]: 2250 | MFI at 15.43 ng/mL antibody [8]: 4830 | MFI at 92.59 ng/mL antibody [8]: 12100 | MFI at 555.56 ng/mL antibody [8]: 27400 | MFI at 3333.33 ng/mL antibody [8]: 29700 | MFI at 20000 ng/mL antibody [8]: 36600 | MFI at 0.07 ng/mL antibody [9]: 200 | MFI at 0.43 ng/mL antibody [9]: 342 | MFI at 2.57 ng/mL antibody [9]: 670 | MFI at 15.43 ng/mL antibody [9]: 1150 | MFI at 92.59 ng/mL antibody [9]: 1470 | MFI at 555.56 ng/mL antibody [9]: 1640 | MFI at 3333.33 ng/mL antibody [9]: 1990 | MFI at 20000 ng/mL antibody [9]: 2660
